Measured values as given in PMC3374832, “The Structure of the Oligomerization Domain of Lsr2 from Mycobacterium tuberculosis Reveals a Mechanism for Chromosome Organization and Protection” (PLoS ONE, 2012).

Molecular target: the molecule itself
Assay: SEC; S75 16/60GL or 10/300GL column, 20 mM tris-HCl pH 7.5, 150 mM NaCl; fresh sample, 14-week-old sample and sample treated with trypsin (1:500, 5 min, room temperature)

B1: Lsr2 N-terminal dimerization domain, construct Nterm2 (residues 1-61), freshly purified (domain or fragment)
chain: MAKKVTVTLVDDFDGSGAADETVEFGLDGVTYEIDLSTKNATKLRGDLKQWVAAGRRVGGR
notes: Lsr2 (Rv3597c) of Mycobacterium tuberculosis H37Rv, residues 1-61; also called N-Lsr2; Lsr2 N-terminal domain; not shown: His6, N-terminal, kept
In the case of B1, the “stoichiometry N” value is reported as 2.
